Kd data for one substance are collected here from PMC11342882.

The pKd is the negative decadic logarithm of the Kd, by convention in mol/L. Higher therefore signals a small Kd.

The experiment addresses sACE2_(2).S01-IgG1 (human) (UniProt Q9BYF1). Put plainly: BLI.

pKd: −log10 of the molar value.

“Delta-RBD (from UniProt P0DTC2) (domain or fragment)”: the pKd is 9.00.
